Literature values in article PMC3589724 (Scientific Reports, 2013).

B1: S41A Nm mutant: Nm point mutant S41A (literature) (protein, UniProt P06837 1-227, looked up, variant S41A)
Neuromodulin: MLCCMRRTKQVEKNDEDQKIEQDGVKPEDKAHKAATKIQAAFRGHITRKKLKGEKKGDAPAAEAEAKEKDDAPVADGVEKKEGDGSATTDAAPATSPKAEEPSKAGDAPSEEKKGEGDAAPSEEKAGSAETESAAKATTDNSPSSKAEDGPAKEEPKQADVPAAVTDAAATTPAAEDAATKAAQPPTETAESSQAEEEKDAVDEAKPKESARQDEGKEDPEADQEHA
B2: Phe-to-Trp substitution: Nm with Phe-to-Trp substitution at Phe42 (literature) (protein, UniProt P06837 1-227, looked up, variant F42W)
Neuromodulin: MLCCMRRTKQVEKNDEDQKIEQDGVKPEDKAHKAATKIQASWRGHITRKKLKGEKKGDAPAAEAEAKEKDDAPVADGVEKKEGDGSATTDAAPATSPKAEEPSKAGDAPSEEKKGEGDAAPSEEKAGSAETESAAKATTDNSPSSKAEDGPAKEEPKQADVPAAVTDAAATTPAAEDAATKAAQPPTETAESSQAEEEKDAVDEAKPKESARQDEGKEDPEADQEHA

Key:
CaM [1] = settings: in vitro, PC12B cells
CaM [2] = settings: position Phe42

Molecule	association of Nm with the membrane skeleton (PC12B cells)	Ca^2+ sensitivity of interaction with CaM (CaM [1])	increase in Nm-CaM affinity on Phe-to-Trp substitution (CaM [2]) [fold]
B1	inhibiting the association of Nm with the membrane skeleton of PC12B cells	insensitive to Ca^2+ concentrations in vitro	
B2			10
